Results from paper PMC8669397, “Cryo-EM structure of MukBEF reveals DNA loop entrapment at chromosomal unloading sites” (Molecular Cell, 2021).

B1: P. thracensis MukE (natural protein, Photorhabdus thracensis)
chain: MSSTHIEQFMPVKLAQALANSLFPELDSQLRAGRHIGIDDLDNHAFLMDFQEQLEEFYARYNVELIRAPEGFFYLRPRSTTLIPRSVLSELDMMVGKILCYLYLSPERLANQGIFTSQELYEELISLADEGKLMKFVNQRSSGSDLDKQKLQEKVRTTLNRLRRLGMVYFLPNNNNKFTITEAVFRFGADVRSGDDPREIQLRMIRDGEAMPVEGSLSLDDSENDETPDNSAEGAGDEQP
notes: MukE, KITE subunit of MukBEF, Photorhabdus thracensis; also called KITE protein MukE; source: E. coli BL21-Gold(DE3), co-expressed with MukB and MukF (pFB403) or with MukF (pFB486); co-purified with MukB
B2: P. thracensis MatP (natural protein, Photorhabdus thracensis)
chain: MKYQQLENLECGWKWAYLIRKHQEGEPITKYIENSAAHAAVDKLIKLESEPVRVLEWIEQHMNPDLFNRMKQTIRARRKRHFNAEHQHTRKKSIDLDFPVWHRLSALSQRRGNTLSETIVQLIEDAERKEKYANQMSSLKHDLEAILGKNE
notes: cloned without tag; the C-terminal tetramerization tail is not visible; also called MatP2; source: E. coli BL21-Gold(DE3), pFB469, purified (HisTrap, Q flowthrough, SP)

Tests used:
Experiment in all cases: cryo-EM structure; MukB^EQ2E4F2–AcpP2 and MukB^EQ2–AcpP2 at 10 μM each, 80-bp matS DNA and MatP2; buffer H30 with 1 mM ATP, 2 mM MgCl2, 0.05% β-octyl glucoside; MatP/DNA/ATP-bound and apo particles from the same sample
[1] = biological target: the molecule itself
[2] = biological target: T1, P. thracensis MukB(E1407Q) (Photorhabdus thracensis, UniProt A0A0F7LRY2 1-1482, E1407Q); details: both partners purified
T1 construct: MukB, SMC subunit of MukBEF, Photorhabdus thracensis, with E1407Q (slows ATP hydrolysis); Two copies in each MukBEF monomer (kappa-MukB and nu-MukB); also called MukB^EQ; kappa-MukB; source: E. coli BL21-Gold(DE3), pFB485, produced at 22°C; purified alone or with MukEF after mixing of cell pellets (Ni-NTA, hSENP1 elution, Q, Superose 6); not shown: His6-SUMO, N-terminal, cleaved

P. thracensis MukE = biological target: B1; details: both partners purified

Q: Does B1 bind [1]?
A: Result: binds

Q: Does B2 bind [2]?
A: Result: binds

Q: Does B2 bind (P. thracensis MukE)?
A: Result: binds

Q: Does B2 bind [1]?
A: Result: binds
